Patent publication US20200148732A1 (UNIVERSITY OF COPENHAGEN, published 2020)

Molecular target: T1, GFP-TONSL E568A (Homo sapiens, UniProt Q96HA7 1-1378)
T1 construct: also called TONSL E568A / GFP; not shown: N-terminal GFP tag
T1 sequence: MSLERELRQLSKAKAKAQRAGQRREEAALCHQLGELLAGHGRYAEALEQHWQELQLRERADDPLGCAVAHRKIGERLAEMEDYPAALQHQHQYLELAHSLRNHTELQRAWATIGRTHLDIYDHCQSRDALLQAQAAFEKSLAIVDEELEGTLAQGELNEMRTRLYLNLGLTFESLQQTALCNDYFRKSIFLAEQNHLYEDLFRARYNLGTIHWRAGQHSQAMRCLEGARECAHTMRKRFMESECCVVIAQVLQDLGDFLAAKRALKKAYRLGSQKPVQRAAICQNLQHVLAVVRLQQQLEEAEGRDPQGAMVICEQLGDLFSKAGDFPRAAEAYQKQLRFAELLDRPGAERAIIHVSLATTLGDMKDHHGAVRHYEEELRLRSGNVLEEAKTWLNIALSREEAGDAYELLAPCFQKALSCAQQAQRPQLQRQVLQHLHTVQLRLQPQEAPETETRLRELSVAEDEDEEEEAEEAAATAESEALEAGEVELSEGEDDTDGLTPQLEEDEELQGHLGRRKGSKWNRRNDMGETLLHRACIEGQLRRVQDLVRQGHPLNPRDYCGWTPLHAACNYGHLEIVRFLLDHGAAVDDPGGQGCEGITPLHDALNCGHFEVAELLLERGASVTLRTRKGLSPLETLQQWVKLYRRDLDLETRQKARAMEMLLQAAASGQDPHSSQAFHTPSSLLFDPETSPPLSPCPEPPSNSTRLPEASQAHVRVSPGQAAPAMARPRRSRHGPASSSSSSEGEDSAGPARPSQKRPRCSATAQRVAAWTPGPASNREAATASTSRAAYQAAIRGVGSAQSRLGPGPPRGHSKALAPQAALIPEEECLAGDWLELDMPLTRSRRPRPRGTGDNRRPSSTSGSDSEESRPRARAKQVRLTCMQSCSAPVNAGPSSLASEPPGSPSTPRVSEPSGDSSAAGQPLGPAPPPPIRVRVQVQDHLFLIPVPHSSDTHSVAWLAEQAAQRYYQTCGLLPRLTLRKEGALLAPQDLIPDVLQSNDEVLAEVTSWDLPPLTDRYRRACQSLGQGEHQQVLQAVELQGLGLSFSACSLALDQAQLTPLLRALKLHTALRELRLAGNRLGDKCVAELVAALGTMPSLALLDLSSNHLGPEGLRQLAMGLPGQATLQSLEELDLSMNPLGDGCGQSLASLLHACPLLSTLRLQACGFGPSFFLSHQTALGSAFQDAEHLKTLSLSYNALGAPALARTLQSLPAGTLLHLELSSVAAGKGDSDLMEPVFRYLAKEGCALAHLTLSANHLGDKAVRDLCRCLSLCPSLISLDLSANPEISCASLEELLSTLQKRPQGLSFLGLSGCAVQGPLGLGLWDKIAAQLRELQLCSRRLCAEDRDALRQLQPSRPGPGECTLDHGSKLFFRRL
Assay: GFP immunoprecipitation of GFP-TONSL from transfected HeLa S3 cells, western blot (co-IP; association may be indirect)

binding result: binds
B1: MMS22L (endogenous, in cell extracts) (other, UniProt Q6ZRQ5 1-1243, looked up)
chain: MENCSAASTFLTDSLELELGTEWCKPPYFSCAVDNRGGGKHFSGESYLCSGALKRLILNLDPLPTNFEEDTLEIFGIQWVTETALVNSSRELFHLFRQQLYNLETLLQSSCDFGKVSTLHCKADNIRQQCVLFLHYVKVFIFRYLKVQNAESHVPVHPYEALEAQLPSVLIDELHGLLLYIGHLSELPSVNIGAFVNQNQIKLFPPSWHLLHLHLDIHWLVLEILYMLGEKLKQVVYGHQFMNLASDNLTNISLFEEHCETLLCDLISLSLNRYDKVRSSESLMSDQCPCLCIKELWVLLIHLLDHRSKWFVSESFWNWLNKLLKTLLEKSSDRRRSSMPVIQSRDPLGFSWWIITHVASFYKFDRHGVPDEMRKVESNWNFVEELLKKSISVQGVILEEQLRMYLHCCLTLCDFWEPNIAIVTILWEYYSKNLNSSFSISWLPFKGLANTMKSPLSMLEMVKTCCCDKQDQELYKSSSSYTIFLCILAKVVKKAMKSNGPHPWKQVKGRIYSKFHQKRMEELTEVGLQNFFSLFLLLAAVAEVEDVASHVLDLLNFLKPAFVTSQRALIWKGHMAFLLMYAQKNLDIGVLAEKFSCAFREKAKEFLVSKNEEMVQRQTIWTLLSIYIDGVQEVFETSYCLYPSHEKLLNDGFSMLLRACRESELRTVLSFLQAVLARIRSMHQQLCQELQRDNVDLFVQSSLSAKERHLAAVASALWRHFFSFLKSQRMSQVVPFSQLADAAADFTLLAMDMPSTAPSDFQPQPVISIIQLFGWDDIICPQVVARYLSHVLQNSTLCEALSHSGYVSFQALTVRSWIRCVLQMYIKNLSGPDDLLIDKNLEEAVEKEYMKQLVKLTRLLFNLSEVKSIFSKAQVEYLSISEDPKKALVRFFEAVGVTYGNVQTLSDKSAMVTKSLEYLGEVLKYIKPYLGKKVFSAGLQLTYGMMGILVKSWAQIFATSKAQKLLFRIIDCLLLPHAVLQQEKELPAPMLSAIQKSLPLYLQGMCIVCCQSQNPNAYLNQLLGNVIEQYIGRFLPASPYVSDLGQHPVLLALRNTATIPPISSLKKCIVQVIRKSYLEYKGSSPPPRLASILAFILQLFKETNTDIYEVELLLPGILKCLVLVSEPQVKRLATENLQYMVKACQVGSEEEPSSQLTSVFRQFIQDYGMRYYYQVYSILETVATLDQQVVIHLISTLTQSLKDSEQKWGLGRNIAQREAYSKLLSHLGQMGQDEMQRLENDNT
